B1: WIF1 (Wnt Inhibitory Factor 1): T255A (protein)
parent chain: MARRRAFPAFALRLWSILPCLLLLRADAGQPPEESLYLWIDAHQARVLIGFEEDILIVSEGKMAPFTHDFRKAQQRMPAIPVNIHSMNFTWQAAGQAEYFYEFLSLRSLDKGIMADPTVNVPLLGTVPHKASVVQVGFPCLGKQDGVAAFEVNVIVMNSEGNTILRTPQNAIFFKTCQQAECPGGCRNGGFCNERRVCECPDGFYGPHCEKALCIPRCMNGGLCVTPGFCICPPGFYGVNCDKANCSTTCFNGGTCFYPGKCICPPGLEGEQCELSKCPQPCRNGGKCIGKSKCKCPKGYQGDLCSKPVCEPGCGAHGTCHEPNKCQCREGWHGRHCNKRYGASLMHAPRPAGAGLERHTPSLKKAEDRRDPPESNYIW
B2: WIF1 (Wnt Inhibitory Factor 1): T255/319A (protein)
parent chain: MARRRAFPAFALRLWSILPCLLLLRADAGQPPEESLYLWIDAHQARVLIGFEEDILIVSEGKMAPFTHDFRKAQQRMPAIPVNIHSMNFTWQAAGQAEYFYEFLSLRSLDKGIMADPTVNVPLLGTVPHKASVVQVGFPCLGKQDGVAAFEVNVIVMNSEGNTILRTPQNAIFFKTCQQAECPGGCRNGGFCNERRVCECPDGFYGPHCEKALCIPRCMNGGLCVTPGFCICPPGFYGVNCDKANCSTTCFNGGTCFYPGKCICPPGLEGEQCELSKCPQPCRNGGKCIGKSKCKCPKGYQGDLCSKPVCEPGCGAHGTCHEPNKCQCREGWHGRHCNKRYGASLMHAPRPAGAGLERHTPSLKKAEDRRDPPESNYIW

Legend:
[1] = anti-V5 Western blot of CHO cell lysates, GAPDH-normalised; settings: glycan lost; control: WT WIF1-V5-His
[2] = anti-V5 Western blot of CHO conditioned media; settings: glycan lost; control: WT WIF1-V5-His

Row | Protein | localisation_or_trafficking [1] | expression_or_secretion, percent_of_wt [2]
1 | B1 | increases | decreases, decrease of more than 50% vs 100
2 | B2 | increases | decreases, decrease of more than 50% vs 100

— PMC7565927
